The target in the experiment is biotinylated recombinant SARS-CoV-2 wild type spike RBD (SARS-CoV-2, UniProt P0DTC2 319-541). Briefly: FACS.

As a reminder, the Kd is the equilibrium constant for the complex coming apart.

B1: REGN10987 scFv displayed on the surface of HEK 293T cells (scFv, V domains shown)
VH: QVQLVESGGGVVQPGRSLRLSCAASGFTFSNYAMYWVRQAPGKGLEWVAVISYDGSNKYYADSVKGRFTISRDNSKNTLYLQMNSLRTEDTAVYYCASGSDYGDYLLVYWGQGTLVTVSS
VL: QSALTQPASVSGSPGQSITISCTGTSSDVGGYNYVSWYQQHPGKAPKLMIYDVSKRPSGVSNRFSGSKSGNTASLTISGLQSEDEADYYCNSLTSISTWVFGGGTKLTVL
As for B1, the Kd was 8.33 nM.

The record behind these values is article PMC9891525 (2023).
